Source: the supplement of paper PMC11246515
± gives the standard deviation of the averaged measurements.

Assay: total protein half-life in vivo (active degradation + dilution); higher = more stable protein
[1] = E. coli NCM3722 delta-clpP delta-lon delta-hslV, growth: N-lim chemostat, doubling time 6 h
[2] = E. coli NCM3722 delta-clpP, growth: N-lim chemostat, doubling time 6 h
[3] = E. coli NCM3722 delta-hslV, growth: N-lim chemostat, doubling time 6 h
[4] = E. coli NCM3722 delta-lon, growth: N-lim chemostat, doubling time 6 h
[5] = E. coli NCM3722 delta-smpB, growth: N-lim chemostat, doubling time 6 h
[6] = wild type E. coli NCM3722, growth: C-lim chemostat, doubling time 3 h
[7] = wild type E. coli NCM3722, growth: C-lim chemostat, doubling time 6 h
[8] = wild type E. coli NCM3722, growth: C-lim chemostat, doubling time 12 h
[9] = wild type E. coli NCM3722, growth: N-lim chemostat, doubling time 6 h
[10] = wild type E. coli NCM3722, growth: N-lim chemostat, doubling time 12 h
[11] = wild type E. coli NCM3722, growth: P-lim chemostat, doubling time 6 h
[12] = wild type E. coli NCM3722, growth: P-lim chemostat, doubling time 12 h

Sequence | total protein half-life in vivo [1] | total protein half-life in vivo [2] | total protein half-life in vivo [3] | total protein half-life in vivo [4] | total protein half-life in vivo [5] | total protein half-life in vivo [6] | total protein half-life in vivo [7] | total protein half-life in vivo [8] | total protein half-life in vivo [9] | total protein half-life in vivo [10] | total protein half-life in vivo [11] | total protein half-life in vivo [12]
MSHRDTLFSAPIARLGDWTFDERVAEVFPDMIQRSVPGYSNIISMIGMLAERFVQPGTQVYDLGCSLGAATLSVRRNIHHDNCKIIAIDNSPAMIERCRRHIDAYKAPTPVDVIEGDIRDIAIENASMVVLNFTLQFLEPSERQALLDKIYQGLNPGGALVLSEKFSFEDAKVGELLFNMHHDFKRANGYSELEISQKRSMLENVMLTDSVETHKARLHNAGFEHSELWFQCFNFGSLVALKAEDAA | 4.36 ± 0.1 h | 4.266 ± 0.023 h | 3.422 ± 0.01 h | 4.69 ± 0.25 h | 3.28 ± 0.41 h | 2.85 ± 0.079 h | 4.75 ± 0.061 h | 6.64 ± 0.99 h | 3.17 ± 0.74 h | 4.86 ± 0.5 h | 4.66 ± 0.48 h | 9.24 ± 0.053 h
MFPEYRDLISRLKNENPRFMSLFDKHNKLDHEIARKEGSDGRGYNAEVVRMKKQKLQLKDEMLKILQQESVKEV [P0ACW6] | – | – | – | – | – | 1.33 h | 1.87 ± 0.1 h | 1.75 h | – | – | – | –
MKIVEVKHPLVKHKLGLMREQDISTKRFRELASEVGSLLTYEATADLETEKVTIEGWNGPVEIDQIKGKKITVVPILRAGLGMMDGVLENVPSARISVVGMYRNEETLEPVPYFQKLVSNIDERMALIVDPMLATGGSVIATIDLLKKAGCSSIKVLVLVAAPEGIAALEKAHPDVELYTASIDQGLNEHGYIIPGLGDAGDKIFGTK [P0A8F0] | 5.6625 ± 0.0038 h | 5.17 ± 0.33 h | 5.83 ± 0.94 h | 5.36 ± 0.61 h | 5.3 ± 0.15 h | 3.05 ± 0.29 h | 5.86 ± 0.36 h | 10.9 ± 1.4 h | 5.71 ± 0.23 h | 12.1 ± 2.8 h | 6.55 ± 0.34 h | 11.3 ± 0.98 h
MQILADLLNTIPAIDSTAMSRAQRHIDGLLKPVGSLGKLEVLAIQLAGMPGLNGIPHVGKKAVLVMCADHGVWEEGVAISPKEVTAIQAENMTRGTTGVCVLAEQAGANVHVIDVGIDTAEPIPGLINMRVARGSGNIASAPAMSRRQAEKLLLDVICYTQELAKNGVTLFGVGELGMANTTPAAAIVSTITGRDPEEVVGIGANLPTDKLANKIDVVRRAITLNQPNPQDGVDVLAKVGGFDLVGIAGVMLGAASCGLPVLLDGFLSYAAALAACQMSPAIKPYLIPSHLSAEKGARIALSHLGLEPYLNMEMRLGEGSGAALAMPIIEAACAIYNNMGELAASNIVLPGNTTSDLNS | 4.974 ± 0.0055 h | 4.84 ± 1.1 h | 3.39 ± 0.091 h | – | 3.17 ± 0.12 h | 3 ± 0.2 h | 4.63 ± 0.68 h | 8.1 ± 0.064 h | 3.27 ± 0.16 h | 5.18 ± 0.075 h | 4.994 ± 0.018 h | 9.91 ± 0.96 h
MRTVKVFEEAWPLHTPFVIARGSRSEARVVVVELEEEGIKGTGECTPYPRYGESDASVMAQIMSVVPQLEKGLTREELQKILPAGAARNALDCALWDLAARRQQQSLADLIGITLPETVITAQTVVIGTPDQMANSASTLWQAGAKLLKVKLDNHLISERMVAIRTAVPDATLIVDANESWRAEGLAARCQLLADLGVAMLEQPLPAQDDAALENFIHPLPICADESCHTRSNLKALKGRYEMVNIKLDKTGGLTEALALATEARAQGFSLMLGCMLCTSRAISAALPLVPQVSFADLDGPTWLAVDVEPALQFTTGELHL | – | – | – | 5.93 ± 1.4 h | 4.33 ± 0.052 h | 2.73 ± 0.18 h | 6.31 ± 1.1 h | 9.313 ± 0.054 h | 4.81 ± 0.22 h | 11.2 ± 2.8 h | 5.54 ± 0.5 h | 12.119 ± 0.011 h
MTQFNPVDHPHRRYNPLTGQWILVSPHRAKRPWQGAQETPAKQVLPAHDPDCFLCAGNVRVTGDKNPDYTGTYVFTNDFAALMSDTPDAPESHDPLMRCQSARGTSRVICFSPDHSKTLPELSVAALTEIVKTWQEQTAELGKTYPWVQVFENKGAAMGCSNPHPHGQIWANSFLPNEAEREDRLQKEYFAEQKSPMLVDYVQRELADGSRTVVETEHWLAVVPYWAAWPFETLLLPKAHVLRITDLTDAQRSDLALALKKLTSRYDNLFQCSFPYSMGWHGAPFNGEENQHWQLHAHFYPPLLRSATVRKFMVGYEMLAETQRDLTAEQAAERLRAVSDIHFRESGV | 3.59 ± 0.68 h | 3.9 ± 0.27 h | 4.65 ± 1 h | 5.17 ± 1 h | 3.41 ± 0.41 h | 3.38 ± 0.37 h | 5.51 ± 0.28 h | 12.5 ± 2.4 h | 4.16 ± 0.59 h | 6.05 ± 0.21 h | 5.52 ± 0.24 h | 11.7 ± 0.13 h
